Experimental data taken from article PMC4880191, “SUMO-Modification of the La Protein Facilitates Binding to mRNA In Vitro and in Cells”.

T1: La (LARP3), native (human, UniProt P05455 1-408)
T1 sequence: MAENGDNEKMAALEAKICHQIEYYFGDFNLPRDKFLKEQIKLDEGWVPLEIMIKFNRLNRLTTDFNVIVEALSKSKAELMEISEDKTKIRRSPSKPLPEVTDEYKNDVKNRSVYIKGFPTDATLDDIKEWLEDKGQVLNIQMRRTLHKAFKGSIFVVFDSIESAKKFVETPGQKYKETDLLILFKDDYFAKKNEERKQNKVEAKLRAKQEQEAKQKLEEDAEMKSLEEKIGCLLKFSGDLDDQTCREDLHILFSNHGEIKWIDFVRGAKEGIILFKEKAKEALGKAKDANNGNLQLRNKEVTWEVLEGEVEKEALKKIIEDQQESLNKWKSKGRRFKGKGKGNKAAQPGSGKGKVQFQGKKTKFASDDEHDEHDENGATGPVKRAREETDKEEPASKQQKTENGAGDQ


Target: T1, La (LARP3), native
Test: EMSA; most RNA (22 nM) bound at 200-400 nM La; titration 6-700 nM; L37/L22 EMSA: 1x binding buffer (from 2x: 3 mM MgCl2, 300 mM NaCl, 1 mM EDTA, 0.1% Nonidet P-40), i.e. 1.5 mM MgCl2, 150 mM NaCl, 0.5 mM EDTA, 0.05% NP-40; pH not stated; 22 nM RNA, 40 ul, 10 min at room temperature; native 10% PAGE in TBE. CCND1 EMSA as in ref 42
Conditions: protein: recombinant; tags: His6; label: 3'-Cy3; weak secondary structure

Binder | binding result
UUCCGGUCUCUUUGGCCUCGCCGGUAGAAGCAAGAUG (ssRNA) [L37 TOP RNA] | binds
CUCCUCUGCCGCCAUGGCUCCUGUGAAAAAGCUUGUG (ssRNA) [L22 TOP RNA] | binds
